US20050064518A1 (PURDUE PHARMA L P, published 2005)

T1: O772P 3-repeat TM on transfected NIH/3T3 cells (human)
T1 construct: also called NIH/3T3 O772P 3-repeat
T1 chain: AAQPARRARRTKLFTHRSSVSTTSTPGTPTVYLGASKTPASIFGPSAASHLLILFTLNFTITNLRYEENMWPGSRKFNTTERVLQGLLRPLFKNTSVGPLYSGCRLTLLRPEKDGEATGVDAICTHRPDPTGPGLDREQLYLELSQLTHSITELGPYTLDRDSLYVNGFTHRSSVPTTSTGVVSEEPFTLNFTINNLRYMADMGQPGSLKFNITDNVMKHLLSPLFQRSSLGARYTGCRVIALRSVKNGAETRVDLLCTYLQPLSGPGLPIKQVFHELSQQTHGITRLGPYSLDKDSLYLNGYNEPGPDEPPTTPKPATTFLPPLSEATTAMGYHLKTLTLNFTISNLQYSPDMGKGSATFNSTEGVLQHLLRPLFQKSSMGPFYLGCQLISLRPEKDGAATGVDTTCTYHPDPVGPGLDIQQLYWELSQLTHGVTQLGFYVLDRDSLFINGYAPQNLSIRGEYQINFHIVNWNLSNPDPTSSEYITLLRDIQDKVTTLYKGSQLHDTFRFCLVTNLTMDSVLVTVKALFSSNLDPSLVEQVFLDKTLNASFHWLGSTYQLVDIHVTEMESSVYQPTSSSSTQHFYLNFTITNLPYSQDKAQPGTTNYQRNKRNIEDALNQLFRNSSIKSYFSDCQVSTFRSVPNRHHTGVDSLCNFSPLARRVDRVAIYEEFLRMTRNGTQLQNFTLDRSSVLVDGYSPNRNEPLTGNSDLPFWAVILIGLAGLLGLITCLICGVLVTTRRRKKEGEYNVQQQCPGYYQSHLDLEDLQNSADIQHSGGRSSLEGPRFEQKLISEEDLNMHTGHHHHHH

B1: monoclonal antibody 725.1 (antibody, V domains shown)
VH: QIQLVQSGPELKKPGETVKISCKASGYSFTNYGMNWVKQAPGKGLKWMGWINAYIGEPTYADDFKGRFAFSLEASTHTAYLQINSLKSEDTATYFCASGGNSLDFWGQGTTLTVSS
VL: QIILSQSPAILSASPGEKVTMTCRASSSVSSIHWYQQKPESSPKPWIYATSNLASGVPVRFSGSGSGTSYTLTISRMEAADAATYYCQQWSIDPATFGGGTKLEI
notes: Murine hybridoma antibody; also called hybridoma 725.1 (ATCC PTA-5124)
B2: monoclonal antibody 776.1 (antibody, V domains shown)
VH: EVQLQQSGPELVKPGASVKISCKASGYTFTDYNIHWVKQSHGKILEWIGYIYPYNGVSDYNQNFKSKATLIVDNSSNTAYMELRSLTSEDSAVYYCARWDFGSGYYFDYWGQGTTLTVSS
VL: QIVLSQSPAILFASPGETVTMTCRASSSVIYMCWNQQKPGSSPKPWIYGTSTLASGVPTRFSGSGSGTSYSLTISRVEAEDAATYYCQQWSSNPFTFGSGTKLEI
B3: OC125 (antibody)
chain 1: QVQLQESGPELVKPGASVKISCKASGYTFTDYNMHWVKQSHGKSLEWIGYIYPYNGDTGYNQKFRNKASLTVDTSSSTAYMELRSLTSEDSAVYYWARSGGFWYFDVWGQGGTTVTVSS
chain 2: DIQMTQSPAILSASPGEKVTMTCRATPSVSYMHWYQQKPGSSPKPLIYTTSNLASGVPARFSGGGSGTSYSLTVSRVEVEDAATYYCQQWSRSPPTFGAGTKLEIK
B4: O772P 3-repeat recombinant protein (other)
chain: AAQPARRARRTKLFTHRSSVSTTSTPGTPTVYLGASKTPASIFGPSAASHLLILFTLNFTITNLRYEENMWPGSRKFNTTERVLQGLLRPLFKNTSVGPLYSGCRLTLLRPEKDGEATGVDAICTHRPDPTGPGLDREQLYLELSQLTHSITELGPYTLDRDSLYVNGFTHRSSVPTTSTGVVSEEPFTLNFTINNLRYMADMGQPGSLKFNITDNVMKHLLSPLFQRSSLGARYTGCRVIALRSVKNGAETRVDLLCTYLQPLSGPGLPIKQVFHELSQQTHGITRLGPYSLDKDSLYLNGYNEPGPDEPPTTPKPATTFLPPLSEATTAMGYHLKTLTLNFTISNLQYSPDMGKGSATFNSTEGVLQHLLRPLFQKSSMGPFYLGCQLISLRPEKDGAATGVDTTCTYHPDPVGPGLDIQQLYWELSQLTHGVTQLGFYVLDRDSLFINGYAPQNLSIRGEYQINFHIVNWNLSNPDPTSSEYITLLRDIQDKVTTLYKGSQLHDTFRFCLVTNLTMDSVLVTVKALFSSNLDPSLVEQVFLDKTLNASFHWLGSTYQLVDIHVTEMESSVYQPTSSSSTQHFYLNFTITNLPYSQDKAQPGTTNYQRNKRNIEDALNQLFRNSSIKSYFSDCQVSTFRSVPNRHHTGVDSLCNFSPLARRVDRVAIYEEFLRMTRNGTQLQNFTLDRSSVLVDGYSPNRNEPLTGNSADIQHSGGRSSLEGPRFEQKLISEEDLNMHTGHHHHHH
notes: Repeats are residues 14-452 of the entry
B5: monoclonal antibody 16H9 (antibody, V domains shown)
VH: EVQLQQSGAELVKPGASVKLSCTASGFNIKDTYMHWVKQRPEQGLEWIGRIDPANGNTKYDPKFQGKATITADTSSNTAYVQLSSLTSEDTAVYYCASSDIYYGNPGGFAYWGQGTLVTVSA
VL: QIVLTQSPAIMSASLGERVTMTCTASSSVSSSYLHWYQQKPGSSPKLWIYSTSNLASGVPARFSGSGSGTSYSLTISSMEAEDAATYYCHQYHRSPFTFGSGTKLEI
notes: Murine hybridoma antibody; also called hybridoma 16H9 (ATCC PTA-5108)

Columns and labels:
[1] = target: B4; assay: BIAcore SPR, O772P 3-repeat immobilized, mAb injected
Experimental: A […] BIAcore biosensor chip was docked into the BIAcore X instrument and activated with 55 μl of 1:1 NHS/EDC at room temperature. O772P 3-repeat region protein and BSA at 10 μg/ml in 0.05 M acetate buffer, pH 4.5, were immobilized onto the flow cell (FC) 1 and FC2 of the activated chip, respectively, at a flow rate of 5 μl/min to achieve a resonance response of 1000-2000 RU. The chip was then blocked by injection of 55 μl of ethanolamine-HCl, pH 8.5, and followed with washing 5 times with 50 mM NaOH-1 M NaCl. To measure the binding of anti-0722P mAbs to the O772P 3-repeat region immobilized to the chip, 30 μl of anti-0722P mAbs at varying concentrations in BIAcore running buffer (HBS-EP, Cat. #1001-080, BIAcore, Piscataway, N.J.) were injected over the sensor surface at a flow rate of 5 μl/min. Following completion of the injection phase, dissociation was monitored in BIAcore running buffer at the same flow rate for 360 seconds. The surface was regenerated between injections using 30 μl of 50 mM NaOH-1 M NaCl. Individual sensorgrams were analyzed using BIAevaluation.

[2] = target: B4; assay: ELISA, plate-bound O772P 3-repeat
Experimental: On the next day, the plates were washed with 200 μl 1×PBST (1× phosphate-buffered saline (PBS), 0.05% Tween 20) three times and blocked with 100 μl of 1×PBST containing 1% bovine serum albumin (BSA) for 2 hours at 37° C. […] After 1 hour incubation at 37° C., the plates were then washed with 1×PBST three times. For signal detection, 100 μl of HRP (horseradish peroxidase)-conjugated sheep anti-mouse IgG (1:2000 dilution into 1×PBST+1% BSA; Amersham Biosciences) was added to each well and incubated for 1 hour at 37° C. The plates were again washed three times with 1×PBST. Finally, 100 μl¹ of a mixture of TMB (3,3′, 5,5′-tetramethylbenzidine) substrate and H₂O₂ (1:1 ratio, KPL Kirkguard Perry Laboratories) was added into each well and after a 5 minute incubation, the absorbance was measured at 405 nm with a plate reader (Molecular Devices Corp., Sunnyvale, Calif.). The assay was done in triplicate for each selected O772P hybridoma-produced antibody and data was collected and analyzed as a kinetic assay, measured over a 5 minute time period. Average values were calculated and presented. Controls for blank and individual reagents were also included in each experiment.

[3] = target: T2, CA 125/O772P on OVCAR-3 cells (human, UniProt Q8WXI7 1-14507); assay: flow cytometry, OVCAR-3 cells; Ab 2 µg/ml
T2 construct: whole, on cells

[4] = target: B4; assay: ELISA competition, plate-bound O772P 3-repeat; no competitor
Experimental: (§1) On the next day, the plates were washed with 200 μl 1×PBST (1× phosphate-buffered saline (PBS), 0.05% Tween 20) three times and blocked with 100 μl of 1×PBST containing 1% bovine serum albumin (BSA) for 2 hours at 37° C. […] After 1 hour incubation at 37° C., the plates were then washed with 1×PBST three times. For signal detection, 100 μl of HRP-conjugated sheep anti-mouse IgG (1:2000 dilution into 1×PBST+1% BSA, Amersham Biosciences) was added to each well and incubated for 1 hour at 37° C. The plates were washed again with 1×PBST three times. Finally, 100 μl¹ of a mixture of TMB substrate and H₂O₂ (1:1 ratio, KPL) was added into each well and the absorbance was measured at 405 nm with a plate reader (Molecular Devices Corp., Sunnyvale, Calif.). The assay was done in triplicate for each selected antibody and average values were calculated and presented. The percent inhibition compared to no competition was calculated for individual antibodies based on average values. Controls for blank and individual reagents were also included in each experiment.

[5] = target: T1, O772P 3-repeat TM on transfected …; assay: flow cytometry, NIH/3T3 cells expressing O772P 3-repeat TM; Ab 2 µg/ml
[6] = target: B4; assay: ELISA competition, plate-bound O772P 3-repeat; competitor shed CA 125/O772P
Experimental: as §1

[7] = target: B4; assay: ELISA competition, plate-bound O772P 3-repeat; competitor soluble O772P 3-repeat
Experimental: as §1

OC125 = target: B3; assay: ELISA competition: soluble O772P 3-repeat at 10x w/w excess against antibody binding to plate-bound O772P 3-repeat
Experimental: as §1

[8] = target: T3, monoclonal antibody 117.1; assay: as above
T3 construct: Murine hybridoma antibody
Experimental: as §1

[9] = target: T4, monoclonal antibody 368.1; assay: as above
T4 construct: Murine hybridoma antibody
Experimental: as §1

[10] = target: T5, monoclonal antibody 501.1; assay: as above
T5 construct: Murine hybridoma antibody
Experimental: as §1

[11] = target: B2; assay: as above
Experimental: as §1

T3 sequence (VH, as listed by the source, chain 1 of 2): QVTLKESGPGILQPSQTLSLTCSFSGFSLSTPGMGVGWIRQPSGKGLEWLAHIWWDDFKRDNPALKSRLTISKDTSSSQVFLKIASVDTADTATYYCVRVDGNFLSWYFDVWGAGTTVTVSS
T3 sequence (VL, as listed by the source, chain 2 of 2): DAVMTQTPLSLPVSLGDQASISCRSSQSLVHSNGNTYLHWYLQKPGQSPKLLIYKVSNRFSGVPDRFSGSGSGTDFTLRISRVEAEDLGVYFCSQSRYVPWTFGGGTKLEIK
T4 sequence (VH, as listed by the source, chain 1 of 2): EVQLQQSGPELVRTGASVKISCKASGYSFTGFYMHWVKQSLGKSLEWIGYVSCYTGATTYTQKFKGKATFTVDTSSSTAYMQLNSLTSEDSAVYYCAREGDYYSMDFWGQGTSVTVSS
T4 sequence (VL, as listed by the source, chain 2 of 2): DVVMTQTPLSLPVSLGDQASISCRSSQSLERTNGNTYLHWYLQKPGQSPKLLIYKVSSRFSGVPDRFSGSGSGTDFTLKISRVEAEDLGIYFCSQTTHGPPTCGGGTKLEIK
T5 sequence (VH, as listed by the source, chain 1 of 2): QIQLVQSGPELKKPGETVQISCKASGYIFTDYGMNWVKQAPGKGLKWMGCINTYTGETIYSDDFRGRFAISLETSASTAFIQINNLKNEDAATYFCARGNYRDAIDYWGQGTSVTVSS
T5 sequence (VL, as listed by the source, chain 2 of 2): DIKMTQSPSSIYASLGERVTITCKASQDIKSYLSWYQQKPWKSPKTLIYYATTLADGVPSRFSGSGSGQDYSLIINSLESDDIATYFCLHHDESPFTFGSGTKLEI

Kd [1] [nM]	absorbance (OD) [2] [OD]	absorbance (OD)/µg Ab [2] [OD/µg Ab]	absorbance [4] [OD]	absorbance w/shed CA 125/O772P competitor (25-fold w/w excess) [6] [OD]	absorbance w/O772P 3-repeat competitor (10 x w/w excess) [7] [OD]	Binder	other results
2.6	–	–	–	–	–	B1	–
0.4	1.18	29	1.18	0.977	0.077	B2	% positive cells [3]: 94%; % positive cells [5]: 86%
4	0.73	18	0.73	0.074	0.047	B3	–
–	–	–	–	–	–	B4	percent inhibition of binding (OC125): 99%; percent inhibition of binding [8]: 94%; percent inhibition of binding [9]: 30%; percent inhibition of binding [10]: 96%; percent inhibition of binding [11]: 96%
3.9	–	–	–	–	–	B5	–
